Experimental data taken from the supplement of paper PMC6755084.

The sequences below were run on F1*sub RNA substrate (template-directed ligation) (assay: fraction ligated after 30 min (ligated reads / total reads); higher = more ligase activity; sequences stand for … in GAGACCGCAACTGAAAAGTTGT…AGTTCTGCACGTAGAAGCAAAAGGC). Details: 42 °C.
Method in brief: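 The ligase ribozyme variants were produced by PCR amplification of oligo-pool templates, T7 transcription and purification on gel. Their ligated and unligated forms were gel-separated, then reverse transcribed with barcoded primers before MiSeq sequencing. Core bases were filtered at a quality of ≥20, and fraction ligated per variant was ligated reads over total reads.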

Row | Sequence | fraction ligated
1 | TTCACTGTCGTAAGACACTTTGGATGGTTGA [3d352] | 0.498
2 | TATCATGTCTAAGACACTTTGGATGGGTTGA [3d1125] | 0.759
3 | TACACTGTCTAAGACACTTTGGATGGGTTGA [3d570] | 0.266
4 | TTCATGTCGTAAGACACTTTGGATGGGTTGA [3d317] | 0.468
5 | TATCACTTGTGTAAGCACTTTGATGGGTTGA [3d1758] | 0.811
6 | TATCACTTGTCGTAAACACTTTGGATGGTTGA [2d241] | 0.295
7 | TATCACTTGCTAAGACACTTTGATGGGTTGA [3d1607] | 0.738
8 | TACACTTGCGTAAGAACTTTGGATGGGTTGA [3d607] | 0.015
9 | TATCACTTGTGTAAGACACTTGGATGGGTTG [3d1792] | 0.801
10 | TATCATTGTCGTAAGACACTTTGGATGGGTTGA [1d6] | 0.796
11 | TATCACTTGTCTAAACACTTTGGAGGGTTGA [3d1842] | 0.133
12 | TATCCTTGTCGTAAGACATTTGGAGGGTTGA [3d1093] | 0.0135
13 | ATCACTTGTCGTAAGACACTTTGGTGGTTGA [3d267] | 0.0134
14 | TATCACTGTGTAAGACACTTTGGATGGGTTGA [2d131] | 0.887
15 | TATCACTTGTCGAAGACACTTTATGGGTTGA [3d1964] | 0.16
16 | TTCACTTGTGTAAGACACTTTGGTGGGTTGA [3d397] | 0.00981
17 | TATCACTTGTCGTAGACTTTGGATGGGTTGA [3d2003] | 0.814
18 | TTCACTTGTCGAAGACACTTTGGAGGGTTGA [3d425] | 0.157
19 | ATCACTTGTCGTAAACACTTTGGATGGTTGA [3d218] | 0.557
20 | TATCCTTGCGTAAGAACTTTGGATGGGTTGA [3d990] | 0.832
21 | TATCATTGTCGTAAGCACTTTGGATGGGTTG [3d1246] | 0.767
22 | TATCACTTGTCGTAACACTTTGGATGGGTTA [3d2001] | 0.545
23 | TATCACTGTCTAAGACACTTGGATGGGTTGA [3d1365] | 0.789

Row | Sequence | fraction ligated
24 | TATCACTTGTCGTAAGCACTTGGATGGGTTA [3d2133] | 0.565
25 | TATCACTTGCGTAAGACATTGGATGGGTTGA [3d1674] | 0.802
26 | TATCACTTGTGTAGACACTTTGGAGGGTTGA [3d1740] | 0.0783
27 | ATCACTTGTCGAAGACACTTTGATGGGTTGA [3d192] | 0.655
28 | TATACTTGTCGTAAACATTTGGATGGGTTGA [3d885] | 0.78
29 | TATCACTTGTCGTAAACACTTTGGAGGGTTG [3d2100] | 0.0384
30 | TATCCTTGTCGTAAGACACTTTGGATGGGTTG [2d108] | 0.781
31 | TATCACTTGTGTAGACATTTGGATGGGTTGA [3d1736] | 0.883
32 | TTCACTTGTCTAGACACTTTGGATGGGTTGA [3d403] | 0.703
33 | TATCACTGTCGTAAGACATTTGGATGGTTGA [3d1437] | 0.606
34 | TATACTTGTCTAAGAACTTTGGATGGGTTGA [3d847] | 0.765
35 | TATCATTGTGTAAGACACTTTGGAGGGTTGA [3d1183] | 0.0175
36 | TATCACTGCGTAGACACTTTGGATGGGTTGA [3d1330] | 0.862
37 | TATCACTTGTCTAAGCACTTTGGATGGTTGA [3d1853] | 0.165
38 | ATCACTTGTCGTAAGCACTTGGATGGGTTGA [3d224] | 0.716
39 | TATCATTGTCGTAAGACACTGGATGGGTTGA [3d1269] | 0.783
40 | TATCCTTGTCGTAAGACTTTGGATGGGTTGA [3d1065] | 0.76
41 | TATCACTTGTCTAAGACACTTGGAGGGTTGA [3d1881] | 0.0594
42 | TTCACTTTCGTAGACACTTTGGATGGGTTGA [3d358] | 0.142
43 | TATCACTTGCGTAGACACTTTGGTGGGTTGA [3d1634] | 0.0947
44 | TATCCTTGTCGTAAGAACTTTGGATGGTTGA [3d1080] | 0.0325
45 | TATCACTTGTCGTAAGACATTTGGGGGTTGA [3d2220] | 0.0157
46 | TATCACTTGCGAAGACCTTTGGATGGGTTGA [3d1617] | 0.779

Row | Sequence | fraction ligated
47 | TATCACTTGCTAAGACCTTTGGATGGGTTGA [3d1604] | 0.811
48 | TATCACTTTCGTAAGACTTTGGATGGGTTGA [3d1529] | 0.823
49 | TATCCTTGTCGTAAGACACTTTGAGGGTTGA [3d1106] | 0.0265
50 | TTCACTTGTCGTAGACACTTTGGATGGTTGA [3d439] | 0.57
51 | TATCACTGTCTAAGACACTTTGGATGGTTGA [3d1369] | 0.239
52 | TATCCTTGCGTAAGACACTTTGGATGGTTGA [3d997] | 0.0475
53 | TATCACTTGTCGAAGACCTTTGGTGGGTTGA [3d1945] | 0.218
54 | TACCTTGTCGTAAGACACTTTGGAGGGTTGA [3d543] | 0.24
55 | TATCACTTTCGTAAGAACTTTGGATGGTTGA [3d1544] | 0.643
56 | TATACTTGTCGAAGACACTTGGATGGGTTGA [3d863] | 0.743
57 | ATCACTTGTCGTAAGACATTTGGATGGTTGA [3d250] | 0.445
58 | TATCACTTGTCGTAAGACATTTGTGGGTTGA [3d2215] | 0.00941
59 | TTCACTTGTCGTAAGACACTTTGGATGGGTTGA [1d2] | 0.789
60 | TATCACTGTCGTAGACACTTTGGAGGGTTGA [3d1394] | 0.13
61 | TTCCTTGTCGTAAGACCTTTGGATGGGTTGA [3d308] | 0.737
62 | TACACTTGTCGTAAACACTTTGATGGGTTGA [3d676] | 0.0132
63 | TATCCTTGTCTAAGACACTTTGGATGGGTTG [3d1028] | 0.773
64 | ATCACTTGTCGTAAGACACTTTGGAGGGTTGA [2d21] | 0.189
65 | TTCACTGTCGTAAGACATTTGGATGGGTTGA [3d347] | 0.755
66 | TATCACTTTCGAAGACATTTGGATGGGTTGA [3d1498] | 0.769
67 | TATCACTTCGTAAGACACTTGGATGGGTTGA [3d1320] | 0.796
68 | TACACTTGTCTAAGACACTTTGGTGGGTTGA [3d641] | 0.124
69 | ATCCTTGTCGTAAGAACTTTGGATGGGTTGA [3d76] | 0.719

Row | Sequence | fraction ligated
70 | TATCATTGTCGTAAACACTTGGATGGGTTGA [3d1230] | 0.778
71 | TAACTTGTCGTAAGACACTTTGGAGGGTTGA [3d524] | 0.0881
72 | TATCACTTGTGTAAGACACTTGATGGGTTGA [3d1787] | 0.8
73 | ATCACTTTCGTAAGCACTTTGGATGGGTTGA [3d129] | 0.766
74 | ATCTTGTCGTAAGACACTTTGGATGGGTTGA [3d46] | 0.774
75 | TATCACTTCGTAAGAACTTTGGATGGGTTGA [3d1317] | 0.868
76 | TATACTTGTCGAAGACACTTTGGATGGGTTGA [2d76] | 0.761
77 | TATCATTGTCGTAAGACCTTTGGTGGGTTGA [3d1257] | 0.426
78 | ATCACTGTCGTAAGCACTTTGGATGGGTTGA [3d113] | 0.749
79 | TACACTTTCGTAAGACACTTTGGATGGGTTGA [2d51] | 0.0483
80 | TATCTTGTCGAAGACACTTTGGATGGGTTGA [3d744] | 0.755
81 | TATCACTTGGTAAGCACTTTGGATGGGTTGA [3d1588] | 0.818
82 | TATCACTTGTGAAGACCTTTGGATGGGTTGA [3d1722] | 0.823
83 | TATCACTTTCGAAGACACTTTGGATGGGTTGA [2d149] | 0.797
84 | TATCACTGCGTAAGACACTTGGATGGGTTGA [3d1336] | 0.793
85 | TATACTTGTCGTAGACACTTTGGATGGGTTA [3d881] | 0.00736
86 | TATCACTGTCGTAGACACTTTGGATGGTTGA [3d1395] | 0.409
87 | TATCACTTGTCGAGACACTTTGGATGGGTTG [3d1914] | 0.797
88 | TATCATTGTCTAAGAACTTTGGATGGGTTGA [3d1191] | 0.803
89 | TATCCTTGTCGTAGACACTTTGGATGGGTTA [3d1053] | 0.398
90 | TATCACTTTCGTAAGAATTTGGATGGGTTGA [3d1539] | 0.835
91 | TATCACTTGTCGTAAGACATTTGGATGGGTTG [2d275] | 0.828
92 | ATCACTTGCGTAAGAACTTTGGATGGGTTGA [3d146] | 0.835

Row | Sequence | fraction ligated
93 | TTCACTTGTCGTAAGACCTTTGGATGGGTTG [3d476] | 0.77
94 | TATCATTTCGTAAGACACTTTGGATGGTTGA [3d1153] | 0.101
95 | ATCACTTGTCGTAAGACTTTGGATGGGTTGA [3d221] | 0.727
96 | TATCATTGTCGTAAGCACTTTGGATGGTTGA [3d1244] | 0.0553
97 | TTCATTGTCGTAAGACACTTTGGTGGGTTGA [3d331] | 0.106
98 | TATCACTGTCGAAGACACTTTGGTGGGTTGA [3d1380] | 0.369
99 | TATCACTTGTCGAAGACATTTGATGGGTTGA [3d1951] | 0.329
100 | TATACTTGTCGAAGACCTTTGGATGGGTTGA [3d861] | 0.478
101 | TATCACTGTCGTAAGAATTTGGATGGGTTGA [3d1418] | 0.804
102 | TTCACTTGTCGAAGAACTTTGGATGGGTTGA [3d419] | 0.45
103 | TACACTTGCGTAAGACATTTGGATGGGTTGA [3d609] | 0.422
104 | TATACTTGTCAAGACACTTTGGATGGGTTGA [3d843] | 0.705
105 | TTCACTTGTCGTAAGACACTTTGTGGGTTGA [3d492] | 0.0104
106 | TATCACTTGTCTAAGACACTTTGGATGGTTG [3d1899] | 0.408
107 | TATCACTTTGTAAGAACTTTGGATGGGTTGA [3d1469] | 0.866
108 | TATCACTTGTGTAAGCCTTTGGATGGGTTGA [3d1755] | 0.76
109 | TTCACTTGTCGTAAACACTTTGGAGGGTTGA [3d448] | 0.0223
110 | TATACTTGTCGTAAGACACTTTGGATGGTTG [3d946] | 0.0597
111 | TTCACTTGTCGTAAGACACTTGGATGGGTTG [3d490] | 0.288
112 | TATCATTTCGTAAACACTTTGGATGGGTTGA [3d1144] | 0.806
